Measured values published in patent US12612465B2, “Formulations comprising PCSK9 specific monoclonal antibodies” (Amgen Inc., priority 2012, dated 2026).
One block for each molecule: values may come before it.

Tests used:
human D374Y PCSK9 = human D374Y PCSK9 (Homo sapiens, UniProt Q8NBP7, D374Y/E620G/G670E/V474I); test: Receptor ligand blocking screen / functional screening of hybridoma antibodies; format: binding
Experimental: To screen for the antibodies that block PCSK9 binding to LDLR an assay was developed using the D374Y PCSK9 mutant. […] The following protocol was employed in the receptor ligand blocking screen: Costar 3702 medium binding 384 well plates (Corning Life Sciences) were employed in the screen. The plates were coated with goat anti-LDLR (R&D Cat # AF2148) at 2 μg/ml in 1×PBS/0.05% Azide at a volume of 40 μl/well. The plates were incubated at 4° C. overnight. The plates were then washed using a Titertek plate washer (Titertek, Huntsville, Ala.). A 3-cycle wash was performed. The plates were blocked with 90 μl of 1×PBS/1% milk and incubated approximately 30 minutes at room temperature. The plates were then washed using the Titertek plate washer. A 3-cycle wash was performed. The capture sample was LDLR (R&D, Cat #2148LD/CF), and was added at 0.4 μg/ml in 1×PBS/1% milk/10 mM Ca^2+ at a volume of 40 μl/well. The plates were then incubated for 1 hour and 10 minutes at room temperature. Contemporaneously, 20 ng/ml of biotinylated human D374Y PCSK9 was incubated with 15 micro liters of hybridoma exhaust supernatant in Nunc polypropylene plates and the exhaust supernatant concentration was diluted 1:5. The plates were then pre-incubated for about 1 hour and 30 minutes at room temperature. Next, the plates were washed using the Titertek plate washer operated using a 3-cycle wash. 50 μl/well of the pre-incubated mixture was transferred onto the LDLR coated ELISA plates and incubated for 1 hour at room temperature. To detect LDLR-bound b-PCSK9, 40 μl/well streptavidin HRP at 500 ng/ml in assay diluent was added to the plates. The plates were incubated for 1 hour at room temperature. The plates were again washed using a Titertek plate washer. A 3-cycle wash was performed. Finally, 40 μl/well of One-step TMB (Neogen, Lexington, Ky.) was added to the plate and was quenched with 40 μl/well of 1N hydrochloric acid after 30 minutes at room temperature. OD's were read immediately at 450 nm using a Titertek plate reader.
The receptor ligand assay was then repeated using the mutant enzyme on the 384 member subset of neutralizers identified in the first large scale receptor ligand inhibition assay. The same protocol was employed in the screen of the 384 member blocker subset assay as was done in the large scale receptor ligand blocking screen.
Limiting dilution was used to isolate a manageable number of clones from each line. […] The isolated clones were each expanded in 50-100 ml of hybridoma media and allowed to grow to exhaustion, (i.e., less than about 10% cell viability). The concentration and potency of the antibodies to PCSK9 in the supernatants of those cultures were determined by ELISA and by in vitro functional testing, as described herein.

PCSK9 protein = target: T1, PCSK9 protein (Mus musculus, UniProt Q80W65); test: Serum cholesterol and HDL in WT mice, 13 day study; format: in vivo; settings: 10 mg/kg, repeated 13 day study
T1 construct: endogenous in cells; host or cells: WT C57BL/6 mice, in vivo
Excerpt: Male WT mice (C57BL/6 strain, aged 9-10 weeks, 17-27 g) obtained from Jackson Laboratory (Bar Harbor, Me.) were fed a normal chow (Harland-Teklad, Diet 2918) through out the duration of the experiment. […] Naïve mice were also set aside as naïve control group.
Animals were sacrificed and livers were extracted and prepared as in Example 13.

human PCSK9 [1] = target: T2, human PCSK9 (Homo sapiens, UniProt Q8NBP7, E620G/G670E/V474I); test: BIAcore affinity analysis; format: binding
T2 construct: made in house
Experimental: Briefly, the surface plasmon resonance experiments were performed using Biacore 2000 optical biosensors (Biacore, GE Healthcare, Piscataway, N.J.). […] The concentration of PCSK9 protein was varied at 2 fold intervals (the analyte) and was injected over the immobilized antibody surface (at a flow rate of 100 μl/min for 1.5 minutes). […]
The binding signal obtained was proportional to the free PCSK9 in solution.
Antibody binding kinetic parameters including ka (association rate constant), […] (dissociation rate constant), and KD (dissociation equilibrium constant) were determined using the BIA evaluation 3.1 computer program (BIAcore, Inc. Piscataway, N.J.).

human PCSK9 [2] = target: T2, human PCSK9; test: KinExA affinity analysis; format: binding; settings: hPCSK9, KinExA
Excerpt: Briefly, Reacti-Gel™ (6×) (Pierce) was pre-coated with one of human, V5-tagged cyno or His-tagged mouse PCSK9 proteins and blocked with BSA. […] Equilibrium dissociation constant (KD) were obtained from nonlinear regression of the two sets of competition curves using a one-site homogeneous binding model. The KinExA® Pro software was employed in the analysis.

T2 sequence (Q8NBP7 153-692 V474I/E620G/G670E): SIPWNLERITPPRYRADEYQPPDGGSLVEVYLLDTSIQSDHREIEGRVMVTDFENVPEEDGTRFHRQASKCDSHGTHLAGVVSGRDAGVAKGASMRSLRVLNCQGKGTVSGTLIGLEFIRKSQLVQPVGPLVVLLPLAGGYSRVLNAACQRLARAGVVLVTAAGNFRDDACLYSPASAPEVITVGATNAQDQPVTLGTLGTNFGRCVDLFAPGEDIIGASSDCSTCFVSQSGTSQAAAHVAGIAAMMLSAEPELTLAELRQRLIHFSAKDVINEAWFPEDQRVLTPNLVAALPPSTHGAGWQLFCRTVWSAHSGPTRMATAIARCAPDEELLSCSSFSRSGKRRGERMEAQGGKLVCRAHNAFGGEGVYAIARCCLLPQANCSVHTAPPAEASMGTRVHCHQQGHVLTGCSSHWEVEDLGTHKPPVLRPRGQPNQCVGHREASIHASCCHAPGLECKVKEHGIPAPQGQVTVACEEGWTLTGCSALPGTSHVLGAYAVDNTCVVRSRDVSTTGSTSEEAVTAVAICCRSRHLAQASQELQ
Chain of human D374Y PCSK9 (Q8NBP7 153-692 D374Y/V474I/E620G/G670E): as the sequence (Q8NBP7 153-692 V474I/E620G/G670E) above, with D222Y counted along it
T1 sequence (Q80W65 156-694): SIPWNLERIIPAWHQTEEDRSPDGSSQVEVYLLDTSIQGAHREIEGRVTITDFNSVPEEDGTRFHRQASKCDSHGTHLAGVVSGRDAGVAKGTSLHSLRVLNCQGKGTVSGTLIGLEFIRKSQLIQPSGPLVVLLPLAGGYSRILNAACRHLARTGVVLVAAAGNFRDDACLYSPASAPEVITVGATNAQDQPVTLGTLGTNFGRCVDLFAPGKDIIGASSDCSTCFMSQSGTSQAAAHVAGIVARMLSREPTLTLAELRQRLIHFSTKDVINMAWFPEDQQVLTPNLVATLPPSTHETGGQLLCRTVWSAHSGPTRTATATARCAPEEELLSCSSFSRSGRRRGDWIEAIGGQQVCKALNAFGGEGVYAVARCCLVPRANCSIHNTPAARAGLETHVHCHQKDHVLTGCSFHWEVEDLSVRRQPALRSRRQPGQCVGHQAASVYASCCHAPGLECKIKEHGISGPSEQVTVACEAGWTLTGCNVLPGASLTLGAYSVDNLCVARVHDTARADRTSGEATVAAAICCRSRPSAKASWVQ

neutralizing ability (human D374Y PCSK9): non-neutralizing
B1: 27B2: anti-PCSK9 ABP, light/heavy variable region SEQ ID NO 13/87 (antibody, listed as Homo sapiens, V domains shown)
VH: QVQLQESGPGLVKPSQTLSLTCTVSGGSISSGGYYWSWIRQHPGKGLEWIGYIYNSGSTYYNPSLKSRVTISVDTSKNQFSLKLSSVTAADTAVYYCAREDTAMVPYFDYWGQGTLVTVSS
VL: QSVLTQPPSVSGAPGQRVTISCTGSSSNIGAHYDVHWYQQVPGTAPKLLIYGNTYRPSGVPDRFSGSKSGTSASLAITGLQAEDEADYYCQSYDNSLSGVVFGGGTKLTVL

neutralizing ability (human D374Y PCSK9): weak neutralizers
B2: 3B6: anti-PCSK9 ABP, light/heavy variable region SEQ ID NO 46/60 (antibody, listed as Homo sapiens, V domains shown)
VH: QVQLVQSGAEVKKPGASVKVSCKASGYTFTSYGISWVRQAPGQGLEWMGWISTYNGNTNYAQKVQGRVTMTTDTSTSTAYMELRSLRSDDTAVYYCARGYTRDYWGQGTLVTVSS
VL: QPVLTQPLFASASLGASVTLTCTLSSGYSSYEVDWYQQRPGKGPRFVMRVDTGGIVGSKGEGIPDRFSVLGSGLNRYLTIKNIQEEDESDYHCGADHGSGTNFVVVFGGGTKLTVL

blocking of PCSK9/LDLR in the functional assays (human D374Y PCSK9; hybridoma clones): neutralizing
B3: 25A7: anti-PCSK9 ABP, light/heavy variable region SEQ ID NO 15/58; neutralizing clone 25A7.3 (antibody, listed as Homo sapiens, V domains shown)
VH: QVQLVQSGAEVKKPGASVKVSCKASGYTFPSYGISWVRQAPGQGLEWMGWISAYNGNTNYAEKLQGRVTMTTDTSTSTAYMEVRSLRSDDTAVFYCARGYVMDVWGQGTTVTVSS
VL: QSALTQPASVSGSPGQSITISCTGTSSDVGRYNSVSWYQHHPGKAPKVMIYEVSNRPSGVSTRFSGSKSGNTASLTISGLQAEDEADYYCSSYTSSSVVFGGGTKLTVL

neutralizing ability (human D374Y PCSK9): non-neutralizing
B4: 13B5: anti-PCSK9 ABP, light/heavy variable region SEQ ID NO 42/69 (antibody, listed as Homo sapiens, V domains shown)
VH: EVQLLESGGGLVQPGGSLRLSCAASGFTFSSYAMSWVRQAPGKGLEWVSTISGSGGRTYYADSVKGRFTISRDNSKNTLYLQMNSLRAEDTAVYYCAKEVGSPFDYWGQGTLVTVSS
VL: QSVLTQPPSVSAAPGQKVTISCSGSNSNIGNNYVSWYQQLPGTAPKLLIYDNNKRPSGIPDRFSGSNSGTSATLGITGLQTGDEADYYCGTWDSSLSAVVFGGGTKLTVL

Kd (human PCSK9 [1]; hPCSK9, pH 7.4 (Table 7.1)): 0.47 nM
Koff (human PCSK9 [1]; pH 6): 7.007e-05 s⁻¹
Kon (human PCSK9 [1]; pH 6): 2.392e+06 M⁻¹ s⁻¹
Kd (human PCSK9 [1]; pH 6 (pH 6.0 HBS-P buffer, n=1)): 0.029 nM
Koff (human PCSK9 [1]; pH 7.4): 4.983e-05 s⁻¹
Kon (human PCSK9 [1]; pH 7.4): 106400 M⁻¹ s⁻¹
Kd (human PCSK9 [1]; pH 7.4 (Table 7.2)): 0.47 nM
Kd (human PCSK9 [2]): 0.015 nM
B5: 16F12: anti-PCSK9 ABP, light/heavy variable region SEQ ID NO 35/79 (antibody, listed as Homo sapiens, V domains shown)
VH: QVHLVESGGGVVQPGRSLRLSCAASGFTFNSFGMHWVRQAPGKGLEWVALIWSDGSDEYYADSVKGRFTISRDNSKNTLYLQMNSLRAEDTAVYYCARAIAALYYYYGMDVWGQGTTVTVSS
VL: QSVLTQPPSVSAAPGQKVTISCSGSSSNIGNNFVSWYQQLPGTAPKLLIYDYNKRPSGIPDRFSGSKSGTSATLGITGLQTGDEADYYCGTWDSSLSAYVFGTGTRVTVL
total serum cholesterol after a single dose (PCSK9 protein): significant and substantial decreases in total serum cholesterol

neutralizing ability (human D374Y PCSK9): non-neutralizing
B6: 13H1: anti-PCSK9 ABP, light/heavy variable region SEQ ID NO 28/91 (antibody, listed as Homo sapiens, V domains shown)
VH: QVQLQQSGPGLVKPSQTLSLTCAISGDSVSSNSAAWNWIRQSPSRGLEWLGRTYYRSKWYKNYSVSVKSRITINPDTSKNQFSLQLNSVTPGDTAVYYCARGGPTAAFDYWGQGTLVTVSS
VL: LSALTQPASVSGSPGQSITISCTGTSSDVGNYNLVSWYQQYSGKAPKLMIYEVSKRPSGVSNRFSGSKSGNTASLTISGLQAEDEADYYCCSYAGSSTLVFGGGTKLTVL
